Drawing on patent publication US20090053138, “Stabilized Aptamers to Platelet Derived Growth Factor and their Use as Oncology Therapeutics” (published 2009), this text covers IC50 for 1 molecule.

In the series the target is PDGF-BB (Homo sapiens, UniProt P01127 P01127:82-190). Put plainly: cell_activity; 3T3 proliferation; Table 2 prints 3.45. As to conditions: tags: PeproTech; chain copies: 2 (inferred, homodimer).
Chain of PDGF-BB (P01127 82-190, one chain of several): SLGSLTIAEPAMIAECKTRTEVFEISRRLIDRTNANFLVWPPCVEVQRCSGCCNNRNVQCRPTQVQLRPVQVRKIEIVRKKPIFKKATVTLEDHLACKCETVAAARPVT

As a reminder, the IC50 is the point on the concentration scale where inhibition reaches its midpoint. Read a low IC50 as higher potency. The molecule CACAGGCTACGGCACGTAGAGCATCACCATGATCCTGTG (ssDNA, 3'-inverted dT) [ARC124] displayed an IC50 of 20.7 nM.
